Paper doi:10.1101/590273, “The structure of an injectisome export gate demonstrates conservation of architecture in the core export gate between flagellar and virulence type three secretion systems” (bioRxiv, 2019)
“And” between values parts separate entries of the source, which are not always exact repeats. Identical values can stand only once.

B4: Shigella flexneri SctR (Spa24) (natural protein)
chain: MLSDMSLIATLSFFTLLPFLVAAGTCYIKFSIVFVMVRNALGLQQVPSNMTLNGIALIMALFVMKPIIEAGYENYLNGPQKFDTISDIVRFSDSGLMEYKQYLKKHTDLELARFFQRSEEENADLKSAENNDYSLFSLLPAYALSEIKDAFKIGFYLYLPFVVVDLVISSILLALGMMMMSPITISVPIKLVLFVALDGWGILSKALIEQYINIPA
notes: Spa24 (SctR), export gate component of the Shigella flexneri virulence type three secretion system; expressed from the complete operon; Five copies stand in the SctR5S4T1 complex

Assays:
[1] = biological target: T1, Salmonella enterica serovar Typhimurium FliR (Salmonella enterica serovar Typhimurium, UniProt P54702 1-264); experiment: cryo-EM structure; re-refinement of the original S. Typhimurium FliPQR data (Kuhlen, Abrusci et al. 2018) in RELION-3 with particle polishing and per-particle CTF refinement, 3.65 Å; coordinates remodeled and re-refined; details: both partners purified
T1 construct: FliR, flagellar export gate component of Salmonella enterica serovar Typhimurium; source: expression of the complete operon
T1 sequence: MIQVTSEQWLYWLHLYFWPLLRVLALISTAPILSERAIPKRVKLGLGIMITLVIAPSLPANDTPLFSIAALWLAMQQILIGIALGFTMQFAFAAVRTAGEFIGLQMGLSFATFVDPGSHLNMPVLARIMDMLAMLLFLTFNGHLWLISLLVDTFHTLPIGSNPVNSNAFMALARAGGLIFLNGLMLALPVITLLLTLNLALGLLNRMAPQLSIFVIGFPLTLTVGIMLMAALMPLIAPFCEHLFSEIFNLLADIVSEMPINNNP

[2] = biological target: the molecule itself; experiment: as above
[3] = biological target: B4; experiment: cryo-EM structure; SctRST complex co-expressed from one operon and purified by the strep tag on SctT; 0.01% LMNG in TBS (100 mM Tris, 150 mM NaCl, 1 mM EDTA, pH 8), 8.4 mg/ml; single particle cryoEM, RELION-3, 3.5 Å; further 3D classification gives classes with 2, 3 or 4 SctS; details: both partners purified
[4] = biological target: T2, Shigella flexneri SctT (Spa29) (Shigella flexneri, UniProt P0A1M6 1-256); experiment: as above; details: both partners purified
T2 construct: Spa29 (SctT), export gate component of the Shigella flexneri virulence type three secretion system; expressed from the complete operon; One copy stands in the complex; not shown: dual-strep tag, C-terminal, kept
T2 sequence: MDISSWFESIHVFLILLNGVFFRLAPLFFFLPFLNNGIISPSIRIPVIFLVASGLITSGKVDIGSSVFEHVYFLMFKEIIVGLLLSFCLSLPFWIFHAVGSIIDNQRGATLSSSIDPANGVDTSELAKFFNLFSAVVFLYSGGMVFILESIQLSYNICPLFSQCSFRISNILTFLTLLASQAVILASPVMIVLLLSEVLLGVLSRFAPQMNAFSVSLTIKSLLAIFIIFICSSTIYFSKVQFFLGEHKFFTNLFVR

B1: Salmonella enterica serovar Typhimurium FliQ (natural protein)
chain: MTPESVMMMGTEAMKVALALAAPLLLVALITGLIISILQAATQINEMTLSFIPKIVAVFIAIIVAGPWMLNLLLDYVRTLFSNLPYIIG
notes: FliQ, flagellar export gate component of Salmonella enterica serovar Typhimurium; source: expression of the complete operon
[1]
  binding result: binds

B2: Salmonella enterica serovar Typhimurium FliP (natural protein)
chain: QLPGLISQPLAGGGQSWSLSVQTLVFITSLTFLPAILLMMTSFTRIIIVFGLLRNALGTPSAPPNQVLLGLALFLTFFIMSPVIDKIYVDAYQPFSEQKISMQEALDKGAQPLRAFMLRQTREADLALFARLANSGPLQGPEAVPMRILLPAYVTSELKTAFQIGFTIFIPFLIIDLVIASVLMALGMMMVPPATIALPFKLMLFVLVDGWQLLMGSLAQSFYS
notes: FliP, flagellar export gate component of Salmonella enterica serovar Typhimurium; source: expression of the complete operon
[1]
  binding result: binds
[2]
  binding result: binds

B3: Shigella flexneri SctS (Spa9) (natural protein)
chain: MSDIVYMGNKALYLILIFSLWPVGIATVIGLSIGLLQTVTQLQEQTLPFGIKLIGVSISLLLLSGWYGEVLLSFCHEIMFLIKSGV
notes: Spa9 (SctS), export gate component of the Shigella flexneri virulence type three secretion system; expressed from the complete operon; Two to four copies stand in the complexes seen (SctR5S2T1, SctR5S3T1, SctR5S4T1)
[3]
  binding result: binds
[4]
  stoichiometry N: 4 and 2 and 3

## B4
[4]
  binding result: binds
